Key:
[1] = target: T1, CD3-ε, full length, GFP2-fused (human, UniProt P07766); assay: cryo-EM structure; subunits co-expressed in CHO-S and purified as one complex in detergent; tenfold molar excess of UCHT1 Fab added before a final SEC in 10 mM HEPES pH 7.4, 150 mM NaCl, 0.02% GDN; 3.01 Å consensus map and 3.39 Å TM-focused map; conditions: both partners purified
T1 construct: CD3-ε, full length; source: CHO-S, lentiviral transduction, co-expressed with the other subunits; purified as the complex from LMNG-solubilised membranes (Strep-Tactin XT, SEC in GDN)
T1 sequence (P07766 23-207): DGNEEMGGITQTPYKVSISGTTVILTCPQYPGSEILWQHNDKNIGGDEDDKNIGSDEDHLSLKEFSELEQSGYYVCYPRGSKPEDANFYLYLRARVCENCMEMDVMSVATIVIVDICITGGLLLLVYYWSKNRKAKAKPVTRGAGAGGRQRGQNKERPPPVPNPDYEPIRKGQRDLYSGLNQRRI

[2] = target: T2, CD3ε on Jurkat T cells (human (endogenous in Jurkat), UniProt P07766); assay: flow cytometry on cells; cells pre-incubated with increasing concentrations of UCHT1 Fab, then stained with fluorescent UCHT1 antibody; conditions: one partner purified
T2 construct: CD3-ε as part of the TCR–CD3 complex at the cell surface; source: endogenous, on Jurkat T cells (TCR transductants)
T2 sequence (P07766 23-207): as above

B1: Fab fragment of the anti-human CD3ε murine antibody UCHT1 (Fab, V domains shown)
VH: EVQLQQSGPELVKPGASMKISCKASGYSFTGYTMNWVKQSHGKNLEWMGLINPYKGVSTYNQKFKDKATLTVDKSSSTAYMELLSLTSEDSAVYYCARSGYYGDSDWYFDVWGQGTTLTVFS
VL: DIQMTQTTSSLSASLGDRVTISCRASQDIRNYLNWYQQKPDGTVKLLIYYTSRLHSGVPSKFSGSGSGTDYSLTISNLEQEDIATYFCQQGNTLPWTFAGGTKLEIK
notes: VH domain of UCHT1; C-γ1 domain of murine IgG1, residues 1-103 of P01868-1; Vκ domain of UCHT1; murine constant kappa domain; Both chains were expressed under a modified cPTPRσ signal peptide ([residues removed], last two residues changed for a KpnI site); also called UCHT1 Fab; source: CHO-K1, lentiviral transduction, purified from culture supernatant (CaptureSelect C-tagXL, Superdex 200)
- binding result [1]: binds
- binding result [2]: binds

From paper PMC11485255, “Structure of a fully assembled γδ T cell antigen receptor” (Nature, 2024)
